Assay [1] concerns the target T1, mouse FcγRIV on transfected HEK293T cells (Mus musculus, UniProt A0A0B4J1G0).
T1 construct: also called FcγRIV transfected cells
As to the kind of experiment: flow cytometry on cells. Conditions: one partner purified.

For assay [2], the target named is T2, human H3N2 M2e peptide (Influenza A virus, human H3N2 consensus).
T2 chain: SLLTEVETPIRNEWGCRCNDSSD
As to the kind of experiment: ITC; […] (300 μM) […] (30 μM) in PBS; […]. Conditions: both partners purified. A general note: ITC needs no label: the signal is the heat of the interaction.

Assay [3] addresses M2 of A/Swine/Ontario/42729A/2001 (H3N3) on infected cells (Influenza A virus …, UniProt Q64HP7, strain). In words: flow cytometry on cells. The following applies: one partner purified. For orientation: A flow cytometer gives signals particle by particle.
For assay [4], the target named is M2 of A/Puerto Rico/8/1934 (H1N1) on infected cells (Influenza A virus A/Puerto Rico/8/1934 …, UniProt P06821). As to the kind of experiment: flow cytometry on cells. Conditions: one partner purified.
In assay [5] the target is M2 of A/Udorn/307/1972 (H3N2) on infected cells (influenza A virus A/Udorn/307/1972 …, UniProt P0DOF5). As to the kind of experiment: flow cytometry on cells. Conditions: one partner purified.
Assay [6] concerns the target T2, human H3N2 M2e peptide. As to the kind of experiment: ELISA. Conditions: both partners purified.

The values that follow come from PMC6921966 (Frontiers in Immunology, 2019).

Chain of M2 of A/Puerto Rico/8/1934 (H1N1) on infected cells (P06821 whole entry): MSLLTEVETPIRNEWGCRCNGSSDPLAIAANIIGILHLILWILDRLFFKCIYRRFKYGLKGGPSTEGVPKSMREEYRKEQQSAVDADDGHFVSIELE
T1 sequence (A0A0B4J1G0 21-249): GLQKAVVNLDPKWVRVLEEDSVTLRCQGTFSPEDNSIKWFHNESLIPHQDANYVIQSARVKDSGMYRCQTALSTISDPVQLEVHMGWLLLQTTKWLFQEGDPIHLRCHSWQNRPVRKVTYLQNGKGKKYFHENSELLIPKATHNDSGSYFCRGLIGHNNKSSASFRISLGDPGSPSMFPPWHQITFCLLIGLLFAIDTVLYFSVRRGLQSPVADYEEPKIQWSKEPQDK
Chain of M2 of A/Udorn/307/1972 (H3N2) on infected cells (P0DOF5 whole entry): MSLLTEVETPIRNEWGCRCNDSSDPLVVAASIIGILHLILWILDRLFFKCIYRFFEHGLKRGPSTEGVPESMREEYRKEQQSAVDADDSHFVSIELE

B1: FcγRIV-VHH-7m (VHH)
VHH: QVQLQESGGGLVQAGGSLRLSCAASGFTVDDYSIGWFRQAPGKEREGVSCISIRDGSTGYTDPVKGRFTISSDNAKNMVYLQMNMLKPEDTAVYYCAGDIYCSNDDVGVGPYDYWGQGTQVTVSS
notes: also called FcgRIV-VHH-7m; FcγRIV-specific VHH
With B1, the binding result in assay [1] was “binds”.

B2: M2e-VHH-23m (VHH)
VHH: QVQLQESGGGLVQTGGSLRLSCAFSGFTSDDYVIGWFRQAPGKGRQGVSCIRLSGGGTIYADSAKGRFTVSADNAKKTVYLQMTRLKPEDTAVYYCGAERYNVEGCGYDVAYWGKGTQVTVSS
notes: also called M2e-VHH-m23; M1e- VHH-23m; not shown: His6, C-terminal, kept
Broadly, the Kd is the free concentration of one partner at which half of the binding sites on the other are occupied at equilibrium, for simple one-to-one binding. A lower Kd goes with a tighter complex. A word on the stoichiometry N: it is the number of molecules, sites or subunits per partner or assembly. As for B2, the values for the dissociation constant Kd (in the assay with human H3N2 M2e peptide [2]; in assay [4]) were 730 nM and 13.6 nM, respectively. Also, in the assay with human H3N2 M2e peptide [2], the “stoichiometry N” value stood at 1. For the same molecule, the binding result was “no binding (tested: 20 μg/ml)” in assay [3] and “binds” in assay [5].

B3: M2e-VHH-66m (VHH)
VHH: QVQLQESGGGLVQTGGSLRLSCAFSGFISDDYVIGWFRQAPGKGRQGVSCIRLSGGGTIYADSAKGRFTISADNAKKTVYLQMTSLKPEDTAVYYCGAERHNVEGCGYDVAYWGKGTQVTVSS
notes: not shown: His6, C-terminal, kept
As for B3, the binding result in the assay with human H3N2 M2e peptide [6] is on record as “binds”.

B4: M2e-VHH-10m (VHH)
VHH: QVQLQESGGGLVQAGESLSLSCAASGLAFDDYVIGWYRQAPGKGREGLSCMRLSNGAIMYGPSVKGRFTMSSDNAKSTFFLQMTRLIPEDTAVYYCGAEKHDVNGCGFDVAYWGQGTQVTVSS
notes: as for B3
As to B4, the binding result with human H3N2 M2e peptide [6] was “binds”.
